Results: patent US20110262445A1

Target: human IL-12, IL-23, IL-12p40
Assay: SPR

B1: Antibody 1 (antibody, human IgG1, kappa, V domains shown)
VH: EVQLQQSGADLVRSGASIKLSCTASGFNIKDYYMHWVKQRPEQGLEWIGWIDPENGDTEYAPKFQGKATMTADTSSNTAYLQLSSLTSEDTAVYYCNACKELRYFDVWGAGTTVTVSS
VL: DIVLTQSPATLSVTPGDSVSLSCRASQSISINLHWYQQKSHESPRLLIKFASQSISGIPSRFSGYGSGTDFTLSINSVETEDFGRYFCQQSNSWPLTFGAGTKLELKR
B1 showed a Kd of 0.04 to 0.07 nM.
